Measurements: patent publication US20260193333A1, “METHODS OF INHIBITING FIBRIL GROWTH” (University of Tennessee Research Foundation, priority 2023, published 2026)

B1: amyloid-reactive peptide p5R (peptide)
peptide: RAQRAQARQARQAQRAQRAQARQARQ
B2: amyloid-reactive humanized antibody (VH SEQ ID NO:55 / VL SEQ ID NO:36) (antibody, V domains shown)
VH: QVQLQESGPGLVKPSETLSLTCTVSGFSLSSYGVSWIRQPPGKGLEWLGVIWGEGSTNYHPNLMSRVTISVDTSKSQVLFKLSSVTAADTAVYYCATLDYWGQGTSVTVSS
VL: DVVMTQSPLSLPVTLGQPASISCRSSQSLVHRSGNTYLHWFQQRPGQSPRLLIYKVSNRFSGVPDRFSGSGSGTDFTLKISRVEAEDVGVYFCFQTTYVPNTFGGGTKLEIK

Key:
rVλ6WIL fibrils = assay: rVλ6WIL (WIL) fibril extension assay with biotinylated rVλ6WIL monomer; format: biochemical; settings: for % Change (at 2 μM) in rVλ6WIL fibril extension: at 2 μM sample, 20 nM Biotin-WIL, blocking agent BSA, compared to control sample
Description: A WIL fibril extension assay was developed for analyzing in vitro amyloid fibril formation using biotinylated WIL monomers.
First, a high binding 96-well ELISA plate was coated with 0.83 μM sonicated rVλ6WIL synthetic fibrils ([…]). The fibrils were then dried in a 37° C. oven. Subsequently, the plate was washed twice with wash buffer (PBS+0.05% tween 20). The plate was then blocked with […] of 1% BSA in PBS for 1 hour at 37° C. The blocking buffer was then removed and the plate was washed twice with wash buffer. For positive control wells, 100 mL of 20 nM biotinylated rVλ6WIL monomer (biotinylated with EZ-link Sulfo-NHS-biotin (ThermoFisher Scientific) following their protocol) in 1% BSA+0.05% tween 20 in PBS (BSAT) was added per well. For test wells, 100 mL of a mix of 20 nM biotinylated rVλ6WIL monomer plus an amyloid-reactive peptide, an amyloid-reactive antibody, or an amyloid-reactive antibody-peptide fusion protein (2, 0.5, 0.05, 0.01, 0.005 and 0.001 […]) in BSAT was added per well. Background control wells (containing no fibrils) contained […] of 20 nM biotinylated rVλ6WIL monomer in BSAT added to them. The microplate was then incubated for 1 hour at 37° C. The plate was then washed twice with wash buffer. 100 mL of a 1:1000 dilution of europium-labeled streptavidin (Perkin Elmer) in BSAT was then added into each well and incubated for 1 hour at 37° C. Next, the plate was washed 3× with wash buffer. To quantify amyloid fibril formation, […] of enhancement solution (Perkin Elmer) was added to each well and time-resolved fluorescence emission was measured in each well.
The methods of Example 1 were carried out in the presence of the amyloid reactive peptide p5R, an amyloid-reactive antibody-peptide fusion protein, an amyloid-reactive humanized antibody, or a control.
Assay conditions included the following: 20 nM biotinylated WIL monomer, 1 hour incubation using BSA as a blocking agent, and 50 μL/well of 10 μg/mL fibrils (0.83 μg).

[1] = target: rVλ6WIL synthetic fibrils; assay: fibril extension assay: 20 nM biotin-WIL monomer binding to plate-coated rVλ6WIL fibrils in the presence of 2 µM sample, BSA block, europium-streptavidin

Molecule | % Change (at 2 μM) in rVλ6WIL fibril extension (rVλ6WIL fibrils) | rVλ6WIL fibril extension in the presence of the peptide (rVλ6WIL fibrils; concentrations between 0.001 μM to 2.0 μM, FIGS. 2A, 2B) | % Change (at 2 µM) of rVλ6WIL fibril extension against control [1] [%] | extension of rVλ6WIL fibrils in the presence of the antibody (rVλ6WIL fibrils; beginning at a concentration of 0.01 μM, FIGS. 4A, 4B) | concentration at which significant attenuation of rVλ6WIL fibril extension begins (rVλ6WIL fibrils; tested 0.001 to 2 μM) [nM] | concentration of maximum level of rVλ6WIL fibril extension inhibition (rVλ6WIL fibrils; tested 0.001 to 2 μM) [nM]
Amyloid reactive peptide p5R: amyloid-reactive peptide p5R, SEQ ID NO: 2, RAQRAQARQARQAQRAQRAQARQARQ (RAQRAQARQARQAQRAQRAQARQARQ) | +12% | insufficient to inhibit rVλ6WIL fibril extension | – | – | – | –
B1 | – | – | 12 | – | – | –
B2 | −89% | – | -89 | significantly attenuated | 10 | 2000
